Changes are numbered by the printed parent chain. Values belong to the binder of their own block, whether it stands above or below them.
How the values were obtained:
[1] = target: T1, cynomolgus monkey DC-SIGN (full length, expressed on CHO cells) (cynomolgus monkey, UniProt Q95J96 1-403 (rhesus entry)); assay: flow cytometry, IgG titrated on cyno DC-SIGN CHO cells
T1 construct: also called cyno DC-SIGN; cyno DC-SIGN CHO
T1 sequence: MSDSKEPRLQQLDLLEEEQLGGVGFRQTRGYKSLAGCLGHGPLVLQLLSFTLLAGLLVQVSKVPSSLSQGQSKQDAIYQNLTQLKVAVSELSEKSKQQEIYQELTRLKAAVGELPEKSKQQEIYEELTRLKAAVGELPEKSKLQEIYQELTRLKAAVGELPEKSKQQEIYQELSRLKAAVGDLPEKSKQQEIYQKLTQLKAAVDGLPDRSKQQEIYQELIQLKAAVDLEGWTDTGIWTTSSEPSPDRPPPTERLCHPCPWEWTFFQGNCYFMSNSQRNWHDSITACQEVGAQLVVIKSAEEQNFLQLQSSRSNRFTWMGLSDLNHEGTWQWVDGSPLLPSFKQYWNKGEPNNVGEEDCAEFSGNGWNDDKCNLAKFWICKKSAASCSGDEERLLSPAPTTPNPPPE

[2] = target: T2, human DC-SIGN (full length, expressed on cells) (human, UniProt Q9NNX6 1-404); assay: flow cytometry, IgG titrated on human DC-SIGN CHO cells
T2 construct: Also used for DC-SIGN on human monocyte-derived cells and on cells of human DC-SIGN transgenic mice in the functional rows; also called CD209; human DC-SIGN CHO
T2 sequence: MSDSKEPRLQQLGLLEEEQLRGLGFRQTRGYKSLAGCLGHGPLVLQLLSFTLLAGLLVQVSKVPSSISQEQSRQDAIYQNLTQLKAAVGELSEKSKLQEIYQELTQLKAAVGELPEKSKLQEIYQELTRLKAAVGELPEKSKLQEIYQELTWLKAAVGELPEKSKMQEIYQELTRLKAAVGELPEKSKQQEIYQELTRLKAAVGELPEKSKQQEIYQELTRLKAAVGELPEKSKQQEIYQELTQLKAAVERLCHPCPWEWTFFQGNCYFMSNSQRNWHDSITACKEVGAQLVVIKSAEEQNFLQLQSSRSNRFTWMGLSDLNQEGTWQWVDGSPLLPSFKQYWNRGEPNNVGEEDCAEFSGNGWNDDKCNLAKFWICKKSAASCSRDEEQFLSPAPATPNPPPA

[3] = target: T2, human DC-SIGN (full length, expressed …); assay: flow cytometry, IgG titrated on human DC-SIGN K562 cells
[4] = target: T3, DC-SIGN Carbohydrate Recognition Domain (CRD), His-tagged (human, UniProt Q9NNX6 250-404); assay: SPR (Biacore 8K), antibody captured on anti-human IgG Fc chip, DC-SIGN CRD as analyte
T3 construct: also called DC-SIGN CRD; not shown: His tag used for capture
T3 sequence: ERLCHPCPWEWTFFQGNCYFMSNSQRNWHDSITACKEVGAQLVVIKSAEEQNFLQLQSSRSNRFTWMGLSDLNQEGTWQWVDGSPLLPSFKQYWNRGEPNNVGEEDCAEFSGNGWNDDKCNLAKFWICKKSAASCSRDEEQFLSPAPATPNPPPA

[5] = target: T3, DC-SIGN Carbohydrate Recognition Domain …; assay: SPR (Biacore 8K), His-tagged DC-SIGN CRD captured at high density on chip, antibody as analyte

B2: 942K11 Parental (antibody, human IgG1, kappa, V domains shown)
VH: QVQLQESGPGLVKPSETLSLTCTVSGGSISSYYWTWIRQPAGKGLEWIGRVFTSESTNYNPSLKNRVTMSVDTSKNQFSLRLNSVTAADTAMYYCARDRGTYLGGFDPWGQGTLVTVSS
VL: not shown
- EC50 [1]: 11.6 µg/mL
- EC50 [2]: 0.2 µg/mL
- Kd [4]: 1260 nM
- Kd [5]: 180 nM

B3: 956E02 Parental (antibody, human IgG1, kappa, V domains shown)
VH: QVQLVQSGAEVKKPGASVKVSCKASGYTFTGYYINWVRQAPGQGLEWMGWINPNSGDTNYAQKFQGRVTMTRDPSISTAYMELSRLRSDDTAVYYCARENSGYGKLFDYWGQGTLVTVSS
VL: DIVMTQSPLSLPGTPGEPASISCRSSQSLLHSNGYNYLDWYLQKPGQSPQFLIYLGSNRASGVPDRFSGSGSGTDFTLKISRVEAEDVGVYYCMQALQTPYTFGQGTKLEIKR
- EC50 [1]: 0.13 µg/mL
- EC50 [2]: 0.12 µg/mL
- Kd [4]: 999 nM
- Kd [5]: 13 nM

B5: 906C18 Parental (antibody, V domains shown)
VH: EVQLVESGGGLVQPGGSLRLSCAASGFTFNNYWMNWVRQAPGKGLEWVANIRQDGSEKYYVDSVKGRFTISRDNAKNSLFLQMNSLRAEDTAVYYCARERAYCSTTSCPDYSNDYWGQGTLVTVSS
VL: EIVMTQSPATLSVSPGERATLSCRASQTINNNLAWFQQKPGQTPRLLIYGASTGATGIPARFSGSGSGTEFTLTISSLQSEDFAVYYCQQYNNWPRGLTFGGGTKVEIKR
- EC50 [1]: 0.77 µg/mL
- EC50 [2]: 0.21 µg/mL
- EC50 [3]: 1.72 µg/mL
- Kd [4]: 1950 nM
- Kd [5]: 16 nM

B7: 2B2 Hz (antibody, V domains shown)
VH: QVQLVQSGAEVKKPGASVKVSCKASGYTFTNYGINWVRQAPGQRLEWMGYIYIGNDYTEYNERFKGRVTITSDTSASTAYMELSSLRSEDTAVYYCARLYYGSSLYSYAMDYWGQGTTVTVSS
VL: DIVMTQSPLSLPVTPGEPASISCRSSKSLLHSSGNTYLYWFLQKPGQSPQLLISRMSNLASGVPDRFSGSGSGTDFTLKISRVEAEDVGVYYCMQHLEYPYTFGGGTKVEIKR
notes: also called humanized 2B2
- EC50 [1]: 0.04 µg/mL
- EC50 [2]: 0.06 µg/mL
- EC50 [3]: 0.27 µg/mL

B8: 2B2 Chimeric (antibody, V domains shown)
VH: EVQLQQSGAELVRPGSSVKMSCKTSGYTFTNYGINWVKQRPGQGLEWIGYIYIGNDYTEYNERFKGKATLTSDTSSSTAHIQLNSLTSEDSAIYFCARLYYGSSLYSYAMDYWGQGTSVTVSS
VL: DIVMTQAAPSVSVTPGESVSISCRSSKSLLHSSGNTYLYWFLQRPGQSPQLLISRMSNLASGVPDRFSGSGSGTAFTLRISRVEAEDVGVYYCMQHLEYPYTFGGGTKLELKR
notes: Murine variable regions on human constant regions
- EC50 [1]: 0.32 µg/mL
- EC50 [2]: 0.23 µg/mL
- EC50 [3]: 0.28 µg/mL

B10: 952P16 Parental (antibody, V domains shown)
VH: QVTLRESGPALVKPTQTLTLTCTFSGFSLSTSGVSVSWIRQPPGKALEWLALIDWDDDKYYSTSLKTRLTISKDTSKNQVVLTMTNMDPVDTATYYCARTPSGSYGRYFDLWGRGTLVTVSS
VL: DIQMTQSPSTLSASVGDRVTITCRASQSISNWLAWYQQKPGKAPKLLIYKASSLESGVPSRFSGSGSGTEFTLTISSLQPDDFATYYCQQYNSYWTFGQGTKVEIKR
- EC50 [1]: 0.02 µg/mL
- EC50 [2]: 0.06 µg/mL
- EC50 [3]: 0.04 µg/mL
- Kd [4]: 395 nM
- Kd [5]: 3.8 nM

Other lines, results leading:

- EC50 [1]: 0.39 µg/mL
- EC50 [2]: 0.26 µg/mL
- EC50 [3]: 1.5 µg/mL
- Kd [4]: 523 nM
- Kd [5]: 5.8 nM
B1: 550E03 Parental (antibody, V domains shown)
VH: QVTLRESGPALVKPTQTLTLTCTFSGFSLSTSGMSVSWIRQPPGKALEWLALIDWDDDKYYSTSLKTRLTISKDTSKNQVVLTMTNMDPVDTATYYCARMALRHAFDAWGQGTMVTVSS
VL: QSVLTQPPSVSGAPGQRVTISCTGSSSNIGAGYDVHWYQQLPGTAPKLLIYVNSNRPSGVPDRFSGSKSGTSASLAITGLQAEDEADYYCQSYDSSLSGWVFGGGTKLTVLG
notes: also called 550Ee03

- EC50 [1]: 0.08 µg/mL
- EC50 [2]: 0.1 µg/mL
- EC50 [3]: 0.25 µg/mL
- Kd [4]: 830 nM
- Kd [5]: 10 nM
B4: 914M09 Parental (antibody, human IgG1, kappa, V domains shown)
VH: QVQLQESGPGLVKPSETLSLTCAVSGGSISSYYWNLIRQPAGKGLEWIGRIYTSGSTNYNPSLKSRVTMSVDTSKNQFSLKLSSVTAADTAVYYCARDSGGFYYYYGMDVWGQGTTVTVSS
VL: DIQLTQSPSFLSASVGDRVTITCRASQGISSYLAWYQQKPGKAPKLLIYAASTLQGGVPSRFSGSGSGTEFTLTISSLQPEDFATYHCQQLNSYPWTFGQGTKVEIKR

- EC50 [1]: 0.02 µg/mL
- EC50 [2]: 0.1 µg/mL
- Kd [4]: 955 nM
- Kd [5]: 0.8 nM
B6: 960K03 Parental (antibody, V domains shown)
VH: QVTLRESGPALVKPTQTLTLTCTFSGFSLSTGGMCVSWIRQPPGKALEWLALIDWDDDKYYSTSLKTRLTISKDTSKNQLVLTMTNMDPVDTATYYCARAHSGSYFDFWGQGTLVTVSS
VL: DIQMTQSPSTLSASVGDRVTITCRASQRISNWLAWYQQKPGKAPKLLIYKASSLESGVPSRFSGSGSGTEFTLTISSLQPDDFATYYCQQFNSYWTFGQGTKVEIKR

- Kd [4]: 32 nM
- Kd [5]: 0.5 nM
B9: 2B2 (parental antibody) (antibody, V domains shown)
VH: B8 VH
VL: DIVMTQAAPSVSVTPGESVSISCRSSKSLLHSSGNTYLYWFLQRPGQSPQLLISRMSNLASGVPDRFSGSGSGTAFTLRISRVEAEDVGVYYCMQHLEYPYTFGGGTKLELK
notes: also called antibody 2B2

- EC50 [1]: 0.19 µg/mL
- EC50 [2]: 0.11 µg/mL
- EC50 [3]: 0.26 µg/mL
- Kd [4]: 346 nM
- Kd [5]: 3.7 nM
B11: 952G04 Parental (antibody, V domains shown)
VH: B10 VH with S37T, T70A
VL: B6 VL with R28S, N31T, K50E, F91Y

- EC50 [1]: 0.08 µg/mL
- EC50 [2]: 0.07 µg/mL
- EC50 [3]: 0.05 µg/mL
- Kd [4]: 174 nM
- Kd [5]: 1.7 nM
B12: 958N05 Parental (antibody, V domains shown)
VH: B10 VH with V34I
VL: B6 VL with M4L, R28S, S63T, F91Y

— US20210170043A1 (Novartis, published 2021)
